Publication PMC11446282
Residue numbers refer to the chain shown, from its start.

B1: AMOTL2 H13: AMOTL2, H13 to alanine (protein, UniProt Q9Y2J4 1-779, looked up, variant H13A)
Angiomotin-like protein 2: MRTLEDSSGTVLARLIQEQLRYGNLTETRTLLAIQQQALRGGAGTGGTGSPQASLEILAPEDSQVLQQATRQEPQGQEHQGGENHLAENTLYRLCPQPSKGEELPTYEEAKAHSQYYAAQQAGTRPHAGDRDPRGAPGGSRRQDEALRELRHGHVRSLSERLLQLSLERNGARAPSHMSSSHSFPQLARNQQGPPLRGPPAEGPESRGPPPQYPHVVLAHETTTAVTDPRYRARGSPHFQHAEVRILQAQVPPVFLQQQQQYQYLQQSQEHPPPPHPAALGHGPLSSLSPPAVEGPVSAQASSATSGSAHLAQMEAVLRENARLQRDNERLQRELESSAEKAGRIEKLESEIQRLSEAHESLTRASSKREALEKTMRNKMDSEMRRLQDFNRDLRERLESANRRLASKTQEAQAGSQDMVAKLLAQSYEQQQEQEKLEREMALLRGAIEDQRRRAELLEQALGNAQGRAARAEEELRKKQAYVEKVERLQQALGQLQAACEKREQLELRLRTRLEQELKALRAQQRQAGAPGGSSGSGGSPELSALRLSEQLREKEEQILALEADMTKWEQKYLEERAMRQFAMDAAATAAAQRDTTLIRHSPQPSPSSSFNEGLLTGGHRHQEMESRLKVLHAQILEKDAVIKVLQQRSRRDPGKAIQGSLRPAKSVPSVFAAAAAGTQGWQGLSSSERQTADAPARLTTDRAPTEEPVVTAPPAAHAKHGSRDGSTQTEGPPDSTSTCLPPEPDSLLGCSSSQRAASLDSVATSRVQDLSDMVEILI
B2: EYA3 T88: EYA3, T88 to alanine (protein, UniProt Q99504 1-573, looked up, variant T88A)
Protein phosphatase EYA3: MEEEQDLPEQPVKKAKMQESGEQTISQVSNPDVSDQKPETSSLASNLPMSEEIMTCTDYIPRSSNDYTSQMYSAKPYAHILSVPVSEAAYPGQTQYQTLQQTQPYAVYPQATQTYGLPPFGALWPGMKPESGLIQTPSPSQHSVLTCTTGLTTSQPSPAHYSYPIQASSTNASLISTSSTIANIPAAAVASISNQDYPTYTILGQNQYQACYPSSSFGVTGQTNSDAESTTLAATTYQSEKPSVMAPAPAAQRLSSGDPSTSPSLSQTTPSKDTDDQSRKNMTSKNRGKRKADATSSQDSELERVFLWDLDETIIIFHSLLTGSYAQKYGKDPTVVIGSGLTMEEMIFEVADTHLFFNDLEECDQVHVEDVASDDNGQDLSNYSFSTDGFSGSGGSGSHGSSVGVQGGVDWMRKLAFRYRKVREIYDKHKSNVGGLLSPQRKEALQRLRAEIEVLTDSWLGTALKSLLLIQSRKNCVNVLITTTQLVPALAKVLLYGLGEIFPIENIYSATKIGKESCFERIVSRFGKKVTYVVIGDGRDEEIAAKQHNMPFWRITNHGDLVSLHQALELDFL
B3: EYA3 Y90: EYA3, Y90 to alanine (protein, UniProt Q99504 1-573, looked up, variant Y90A)
Protein phosphatase EYA3: B2 Protein phosphatase EYA3 with A88T, Y90A
B4: EYA3 P91: EYA3, P91 to alanine (protein, UniProt Q99504 1-573, looked up, variant P91A)
Protein phosphatase EYA3: B2 Protein phosphatase EYA3 with A88T, P91A
B5: EYA3 K75: EYA3, K75 to alanine (protein, UniProt Q99504 1-573, looked up, variant K75A)
Protein phosphatase EYA3: B2 Protein phosphatase EYA3 with K75A, A88T
B6: EYA3 Y77: EYA3, Y77 to alanine (protein, UniProt Q99504 1-573, looked up, variant Y77A)
Protein phosphatase EYA3: B2 Protein phosphatase EYA3 with Y77A, A88T
B7: EYA3 H79: EYA3, H79 to alanine (protein, UniProt Q99504 1-573, looked up, variant H79A)
Protein phosphatase EYA3: B2 Protein phosphatase EYA3 with H79A, A88T
B8: EYA3 I80: EYA3, I80 to alanine (protein, UniProt Q99504 1-573, looked up, variant I80A)
Protein phosphatase EYA3: B2 Protein phosphatase EYA3 with I80A, A88T
B9: EYA3 L81: EYA3, L81 to alanine (protein, UniProt Q99504 1-573, looked up, variant L81A)
Protein phosphatase EYA3: B2 Protein phosphatase EYA3 with L81A, A88T

Tested on: PP2A-B55α
Test: Single alanine mutational scan, YFP-tagged interactors immunoprecipitated from HeLa cells, Western blot
Format: binding, human
Details: single alanine mutant of YFP-tagged AMOTL2

| Molecule | Experimental % binding |
| --- | --- |
| B1 | 110% |

Same assay, conditions: single alanine mutant of YFP-tagged EYA3

| Molecule | Experimental % binding |
| --- | --- |
| B2 | 1% |
| B3 | 5% |
| B4 | 5% |
| B5 | 45% |
| B6 | 20% |
| B7 | 10% |
| B8 | 5% |
| B9 | 20% |
